Assay results from patent US5972656.

Key:
BSA-glutathione (bovine) [1] = biological target: BSA-glutathione (bovine) (UniProt P02769); assay: ELISA, culture supernatant on BSA-GSH plates without mercury
BSA-glutathione (bovine) [2] = biological target: BSA-glutathione (bovine) (UniProt P02769); assay: ELISA, culture fluid on glutathione-BSA (column Glutathione)
BSA-glutathione (bovine) [3] = biological target: BSA-glutathione (bovine) (UniProt P02769); assay: ELISA, subclone culture fluid on BSA-glutathione, average of triplicates

Row | Binder | absorbance at 405 nm (absorbance at 405 nm) (BSA-glutathione (bovine) [1]) | absorbance at 405 nm (absorbance at 405 nm) (BSA-glutathione (bovine) [2]) | absorbance at 405 nm (absorbance at 405 nm) (BSA-glutathione (bovine) [3])
1 | monoclonal antibody 5G4 (antibody, V domains shown) VH: SVPARLKPGASVRISCKASAYSFTGYFMNWMKQSHGKTLEWIGRINPYNGDTFYNQKFKSKATVTVDKSSSTAHMELLSLTSEDSAVYYCGTQPLDYWGQGTTLTVSS VL: DIQMTQSPSSLSASLGERVTLTCRASQDIGSSLNWLQLKPDGTIKRLIYATSGLDSGVPKRFSGSRSGSDYSLTINSPESEDFVDYYCLQCSNSPYTFGGGTKLEIK | 0.028 |  | 
2 | monoclonal antibody 4A10 (antibody, V domains shown) VH: EVQLQQSGPELVKPGALVKISCKASGYTFTSYDINWVKQRPGQGLEWIGWIYPGDGSTKYNEKFKGKATLTADKSSSTAYMQLSSLTSENSAVYFCARCGYAMDYWGQGTSVTVSS VL: DVLMTQTPLSLPVSLGDQASISCRSSQSIVHSNGNTYLEWYLQKPGQSPKLLIYKVSNRFSGVPDRFSGSGSGTDFTLKISRAEAEDLGVYYCFQGSHVRYTFGGGTKLEIK | 0.078 | 0.4 | 0.322
3 | monoclonal antibody 2D5 (antibody, V domains shown) VH: SGGGSVKPGGSLKLSCAASGFTFSSCAMSWVRQTPEKRLEWVATISSGGSYTYYPDSVKGRFTIFRHNAENTLYLQMSSLRSEDTAIYYCVRQDGYYGNYVWFAYWGQGTLVTVSA VL: ELVMTQSPASLSASVGETVTITCRASENIYGYLAWYQQKQGKSPLPRVYNAKTLAEDVSSRVSGSGSGTQFSLKIRTSQPEDFGTYYCQHHYGTPYTFGGGTKLEIK | 0.09 |  | 
4 | monoclonal antibody 5B6 (antibody, V domains shown) VH: SGGGSVKPGGSLKLSCAASGFTFSSRAMSWVRQTPEKRLEWVATISSGGSYTYYPDSVKGRFTISRHNAENTLYFQMSSLRSEDTAIYYCVRQTGYYGNYEWFAYWGQGLLVTVSA VL: DIQMTQSPSSLSASLGERVTLTCRASQDIGSSLNWLQLKPDGTIKRLIYATSGLDSGVPKRFSGSRSGSDYSLTINSPESEDFVDYYCLQCSNSPYTFGGGTKLEIN | 0.019 |  | 
5 | monoclonal antibody 1C11 (antibody, V domains shown) VH: SGAELVKPGASVKLSCKTSGYTVTSYWMGWVKQRPGQGLEWIGNIYPDSGTTNYNEKFKNKATLTVDTFSSTVYMQLSSLTSEDSAVYYCARGVYSYYSYDVYAMDYWGQGTSVTVSS VL: DLVLTQSPPSLAVSLGQRSTISCRSSQSIVHSNGNTYLHWYQQNPGQPPKLLIKYASNLESGVPARFSGSGSGTDFTLNIHPAEVEDSATYFCQHSWEIPPTFGGGTKLEIK | 0.094 |  | 
6 | monoclonal antibody 23F8 (antibody, V domains shown) VH: SGPELVKTGASVKISCKASGYSFTGYYMHWVKQSHGKSLEWIGYISCYNGATSYNQKFKGKATFTVDTSSSTAYMQFNSLTSEDSAVYYCARSGIYDVTTTLTTGAKAPLSQSP VL: DIQMTQSPSSLSASLGGKVTITCKASQDINKYIAWYQHKPGKGPRLLIHYTSTLQPGIPSRFSGSGSGRDYSFSISNPEPEDIATYYCLQYDNSLFTFGSGTKLEIK | 0.168 |  | 
